Reference: US20130136731

System: N_EGF_TCS_SK

**Q.** How did the “cleavage of the purified construct by thrombin (N-terminal protein sequencing)” value turn out when thrombin was run?
**A.** Its value is “The thrombin cleavage was indeed found to be true in case of the purified construct, after treatment with thrombin”.
